Earlier results, collected in paper PMC7116363 (Biomaterials, 2020).

Experiments:
L cells = details: in mice
[1] = not given; remark: listed apart in the source

CCC(=O)O [propionate]
effective concentration of propionate needed to exert an effect on L cells (L cells): 140 mmol/L

liraglutide
circulating levels after oral co-administration with SNAC: failed to provide circulating levels

semaglutide
half-life [1]: 165 h
